Our source for the stoichiometry N values is PMC5014329.

The target in experiment [1] is M22 (42–120) (Streptococcus pyogenes (group A Streptococcus), strain M22 (Sir22)). The experiment is described as follows: crystal structure.
The target in experiment [2] is M2 (amino acids 42–141) (Streptococcus pyogenes (group A Streptococcus), strain M2 (AP2)). The experiment is described as follows: crystal structure.

In experiment [1], M22 (42–120) (domain or fragment) registered a stoichiometry N of 2.

In turn, “M2 (amino acids 42–141) (domain or fragment)” showed a stoichiometry N in experiment [2] of 2.

In general, stoichiometry N refers to a count of units in the complex or per binding partner.
